Here are results for four substances from publication PMC5562754.

The target of assay [1] is PorQ (strain ATCC 33277) (Porphyromonas gingivalis ATCC 33277 (endogenous in OMVs)). In words: native gel or EMSA. The settings on record: scale: PorZ per PorQ. A general note: Mobility shift assays separate free from complexed probe on a gel.
Assay [2] deals with PorU (Porphyromonas gingivalis W50 (endogenous in OMVs)). In words: native gel or EMSA; 2D BN-PAGE (Coomassie, spots identified by MS, densitometry) of large-scale glycerol gradient fractions F15-F17 of 1% DDM-solubilised OMV lysate of WT W50.

In turn, “PorZ (strain ATCC 33277) (natural protein)” displayed a stoichiometry N in assay [1] of 1.

PorZ (natural protein) showed a stoichiometry N in assay [2] (scale: PorZ per PorU) of 1. The substance PorQ (natural protein) had a stoichiometry N in assay [2] (scale: PorQ per PorU) of 1. Substance PorV (natural protein) came in with a stoichiometry N in assay [2] (scale: PorV per PorU) of 3.

Usually stoichiometry N stands for the number of molecules, sites or subunits per partner or assembly.
